Measurements published in article PMC10398351, “Structural and molecular insight into antibody recognition of dynamic neoepitopes in membrane tethered MUC1 of pancreatic cancer cells and secreted exosomes” (RSC Chemical Biology, 2023).
Entries after “also recorded” stand apart in the source; their conditions may differ.

Columns and labels:
[1] = target: MUC1 bearing ST antigen at the immunodominant DTR motif; experiment: SPR affinity of SN-131 with MUC1 bearing ST antigen; type: binding; conditions: SN-131 with MUC1 bearing ST antigen at the immunodominant DTR motif; abstract
Method: The binding affinity of SN-131 Fab with MUC1 TRD models was measured by using a Biacore 2000 surface plasmon resonance (SPR) instrument (GE Healthcare). Synthetic MUC1 TRD models 2–4 with a C-terminal cysteine residue were immobilized on a CM5 chip (GE Healthcare) by a standard protocol of the maleimide coupling. The SN-131 Fab was injected over the surface of the immobilized MUC1 TRD models 2–4 and three kinetic parameters, the association rate constant (kon), the dissociation rate constant (koff), and the equilibrium dissociation constant (KD) were obtained with BIAevaluation 4.1 software (GE Healthcare) using a bivalent binding model. Isothermal titration calorimetry (ITC) experiments were also carried out to determine the thermodynamic parameters of the interaction between SN-131 and non-glycosylated-/Tn-MUC1 TRDs.7 All experiments and analyses were performed by using nano ITC (TA Instrument) and Nanoanalyze based on as independent model.

MUC1 TRD [2] = experiment: Epitope mapping of SN-131 on glycopeptide microarray; type: binding; conditions: SN-131 1 µg/mL, 2 h at room temperature, Cy3 labeled anti-mouse IgG
Method: 100 mM solutions of the synthetic glycopeptides capped with ketone-linker at the N-terminus (5–9) dissolved in 25 mM sodium acetate buffer (pH 5.0) containing 0.005% Tween-20 (w/v) were robotically printed on plastic slides coated with a copolymer carrying aminooxy-/phosphorylcholine functional groups according to the protocol reported previously.[20,22,24] Detailed conditions for the binding assay are described in the ESI. ^† […]
as Additional Data in Supporting Information. Compounds 3 , 5, and 6 were synthesized previously5,7,8 and available for the present study.
Glycopeptide microarray. 100 mM solutions of the synthetic glycopeptides capped with ketone-linker at N -terminus (5~9) dissolved in 25 mM sodium acetate buffer (pH 5.0) containing 0.005% Tween- 20 (w/v) were robotically printed on plastic slides coated with a copolymer carrying aminooxy-/phosphorylcholine functional groups according to the protocol reported previ ousl y.5,7-9 For the epitope analysis of SN-131, antibody solutions (1 µg/mL) were added to each well of the slides. After incubation for 2 h at room temperature, the slides were rinsed and added with Cy3 labeled anti-mouse IgG polyclonal antibody (1 µg/mL). After washing, fluorescence of the wells were measured using a GlycoStation 1200 system and analysed with the ArrayVision […]
Anti-MU C1 mA b (SN -131). […]

PANC-1 cells = experiment: Live cell imaging of Alexa488-conjugated SN-131 on PANC-1 cells; type: cell-based, human; conditions: Alexa 488 conjugated SN-131 10 μg mL−1, 2 h at 37 °C
Method: PANC-1 cells (5 × 10^4 cells per well) were cultured with 10% FBS and 2 mM L-glutamine on an 8-well imaging plate (Fischer Scientific) for 48 h in 5% CO2 at 37 °C. Then, Alexa 488 conjugated SN-131 (10 μg mL^−1), 10 μM MUC1-5ST (8), or MAG (5 μg mL^−1) dissolved in Opti-MEM medium (gibco) was co-incubated with PANC-1 cells for 2 h in 5% CO2 at 37 °C. Cells were washed with Opti-MEM and stained with Hoechst 33342 (2.5 ng mL^−1 in Opti-MEM) for 30 min. […] The pictures were imaged with 60xlens and the following filter set (Blue: #OP-66843 Excitation 360/40, Emission 460/50, Green: #OP-66836, Excitation 470/40, Emission 535/50, Red: #OP-66837, Excitation 540/25, Emission […]). Imaging pictures were analysed by BZ-II Analyzer software (Keyence, Osaka).

MUC1 TRD [3] = conditions: cited from earlier work
Text: By using a robust synthetic glycopeptide library,[21–24] we have established a straightforward approach to antibodies recognizing cancer-relevant glycopeptidic epitopes modified with aberrant O-glycans, namely “dynamic neoepitopes”, found in the MUC1 TRD (Fig. 2a).[19,20] […] We considered that SN-131 is a highly potential anti-MUC1 antibody because this antibody binds specifically MUC1 TRD having core 1 type O-glycans overexpressed in many cancers including pancreatic cancer but not core 2 type O-glycans found in normal cells. However, the structural and molecular basis of the epitope recognition by SN-131 remain to be fully understood. We needed to investi ...

B1: SN-131: anti-MUC1 mAb (clone 1B2, IgG2a) binding MUC1 TRD with Tn, T and ST antigens at the DTR motif (antibody, V domains shown)
VH: QVQLQQSGAELARPGASVKLSCKASGYTFTNYGLSWVKQRTGQGLEWIGENHPGSGIIYHNEKFRGKATLTADKSSSTAYVQLSSLTSEDSAVYFCARSSGTRGFAYWGQGTLVTVSA
VL: DVLMTQTPLSLPVSLGDQASISCRSSQSIVHSNGNTYLEWYLQKPGQSPKLLIYKVSNRFSGVPDRFSGSGSGTDFTLKISRVEAEDLGVYYCFQGSHGPWTFGGGTKLEIK
- Kd [1]: 1.58 nM
- binding of SN-131 to MUC1 TRD glycoforms (epitope mapping, in words) (MUC1 TRD [2]): binds MUC1 TRD with Tn, T, and ST antigens attached to the immunodominant DTR motif; also recorded: did not bind to non-glycosylated MUC1 TRD
- binding to PANC-1 cell surface MUC1 TRD (PANC-1 cells): binds strongly
- glycoform specificity of binding to MUC1 TRD (MUC1 TRD [3]): does not bind to MUC1 TRD when the threonine residue of this immunodominant region is modified with STn, dST, or core 2-type mature complex O-glycan structures
